From patent US20240197738A1 (UNIVERSITY OF NORTH CAROLINA AT CHAPEL HILL, published 2024)

Legend:
CUL3 (wild type) = target: T1, CUL3 (wild type) (UniProt Q13618 1-768); assay: binding assay in cells; method not described
T1 construct: also called WT-CUL3; cullin 3

CUL3-E358Q = target: T2, CUL3-E358Q (UniProt Q13618 1-768); assay: binding assay in cells; method not described
T2 construct: also called E358Q-CUL3

EWSR1 (wild type) = target: T3, EWSR1 (wild type) (UniProt Q01844 1-656, limits assumed); assay: binding assay in cells; method not described, data not shown
T3 construct: also called EWSR1-WT; HA-EWSR1
T3 sequence (looked up): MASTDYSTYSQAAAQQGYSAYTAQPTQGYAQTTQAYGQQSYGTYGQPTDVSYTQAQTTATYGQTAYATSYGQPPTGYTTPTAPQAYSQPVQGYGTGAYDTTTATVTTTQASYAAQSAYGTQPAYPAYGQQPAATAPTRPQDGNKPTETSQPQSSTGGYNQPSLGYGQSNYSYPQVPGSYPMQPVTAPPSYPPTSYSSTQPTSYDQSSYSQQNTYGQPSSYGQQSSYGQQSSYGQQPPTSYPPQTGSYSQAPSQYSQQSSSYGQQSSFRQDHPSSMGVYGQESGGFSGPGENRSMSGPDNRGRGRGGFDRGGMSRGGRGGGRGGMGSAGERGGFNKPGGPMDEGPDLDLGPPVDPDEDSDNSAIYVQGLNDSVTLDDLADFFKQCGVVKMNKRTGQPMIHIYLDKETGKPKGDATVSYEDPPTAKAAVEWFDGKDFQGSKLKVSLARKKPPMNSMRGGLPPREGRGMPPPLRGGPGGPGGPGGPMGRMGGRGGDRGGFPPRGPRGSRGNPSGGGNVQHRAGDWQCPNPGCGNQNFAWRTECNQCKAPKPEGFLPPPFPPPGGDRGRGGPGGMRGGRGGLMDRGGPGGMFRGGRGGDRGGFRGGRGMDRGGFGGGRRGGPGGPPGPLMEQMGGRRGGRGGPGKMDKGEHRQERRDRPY

T2 sequence (Q13618 whole entry E358Q): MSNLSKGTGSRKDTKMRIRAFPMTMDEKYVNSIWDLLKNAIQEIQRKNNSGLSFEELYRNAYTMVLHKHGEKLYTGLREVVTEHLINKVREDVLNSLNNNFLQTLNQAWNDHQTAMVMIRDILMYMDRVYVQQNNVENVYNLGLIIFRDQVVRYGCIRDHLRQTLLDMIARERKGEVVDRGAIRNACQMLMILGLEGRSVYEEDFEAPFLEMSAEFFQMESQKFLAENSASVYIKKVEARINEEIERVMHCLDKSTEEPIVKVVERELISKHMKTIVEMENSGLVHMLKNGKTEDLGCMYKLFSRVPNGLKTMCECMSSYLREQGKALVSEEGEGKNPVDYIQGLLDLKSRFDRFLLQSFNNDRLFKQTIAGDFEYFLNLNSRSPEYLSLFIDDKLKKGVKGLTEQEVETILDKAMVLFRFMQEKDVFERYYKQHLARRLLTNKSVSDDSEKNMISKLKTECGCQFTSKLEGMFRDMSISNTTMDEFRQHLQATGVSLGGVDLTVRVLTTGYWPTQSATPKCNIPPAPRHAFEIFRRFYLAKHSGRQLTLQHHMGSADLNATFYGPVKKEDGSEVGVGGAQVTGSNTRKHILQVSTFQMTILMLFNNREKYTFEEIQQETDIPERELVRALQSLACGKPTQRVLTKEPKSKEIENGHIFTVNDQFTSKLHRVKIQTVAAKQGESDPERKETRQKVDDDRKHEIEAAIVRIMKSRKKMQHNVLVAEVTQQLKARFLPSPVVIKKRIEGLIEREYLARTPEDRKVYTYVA
T1 sequence (Q13618 whole entry): as the sequence (Q13618 whole entry E358Q) above, with Q358E counted along it

- binding result (CUL3 (wild type)): binds
- binding result (CUL3-E358Q): binds
- binding result (EWSR1 (wild type)): no binding
B1: SPOP (other, human, UniProt O43791 1-374, looked up)
chain: MSRVPSPPPPAEMSSGPVAESWCYTQIKVVKFSYMWTINNFSFCREEMGEVIKSSTFSSGANDKLKWCLRVNPKGLDEESKDYLSLYLLLVSCPKSEVRAKFKFSILNAKGEETKAMESQRAYRFVQGKDWGFKKFIRRDFLLDEANGLLPDDKLTLFCEVSVVQDSVNISGQNTMNMVKVPECRLADELGGLWENSRFTDCCLCVAGQEFQAHKAILAARSPVFSAMFEHEMEESKKNRVEINDVEPEVFKEMMCFIYTGKAPNLDKMADDLLAAADKYALERLKVMCEDALCSNLSVENAAEILILADLHSADQLKTQAVDFINYHASDVLETSGWKSMVVSHPHLVAEAYRSLASAQCPFLGPPRKRLKQS
notes: Exogenous SPOP carried a GST, Flag or HA tag; endogenous SPOP was also used; also called GST-SPOP; Flag-SPOP
